Laboratory results: patent US11266746B2, “Therapeutic antitumor combination of a TLR4 ligand with other treatments” (THE UNITED STATES OF AMERICA, as represented by the …, priority 2016, dated 2022)
“Also recorded” adds a separate entry of the source.

Test system: CT26 tumors
Test: Treatment of small (about 5 mm) established CT26 tumors in mice
Assay type: in vivo, Balb/c mice
Protocol: Balb/c mice were inoculated subcutaneously with 100,000 or 200,000 CT26 cells on day 1. […] On days 8, 12, 15 and 19 mice were administered PBS or 1 μg, 10 μg or 50 μg of rHMGN1. Tumor growth was monitored and plotted.
Small CT26 tumors were treated by a combination of one intraperitoneal (i.p.) injection of a suboptimal dose of cyclophosphamide or Cytoxan to reduce regulatory T cells (Treg), a key suppressor cell type in tumors, and four intratumoral (i.t.) administrations of HMGN1 within two weeks. Balb/c mice were subcutaneously inoculated with 100,000 or 200,000 CT26 cells on day 1. When the tumor size reached about 5 mm in diameter (by 4-6 days after tumor inoculation), mice were administered one dose of cyclophosphamide (100 mg/kg, i,p.) and/or HMGN1 protein (10 μg, intratumorally), twice a week for 2 weeks. PBS was administered i.t. or i.p. Tumor growth was monitored and plotted.

B1: High Mobility Group Nucleosome-binding protein 1 (protein, UniProt P05114 1-100, looked up)
Non-histone chromosomal …: MPKRKVSSAEGAAKEEPKRRSARLSAKPPAKVEAKPKKAAAKDKSSDKKVQTKGKRGAKGKQAEVANQETKEDLPAENGETKTEESPASDEAGEKEAKSD
notes: TLR4 ligand
tumor growth (small (about 5 mm) CT26 tumors, intratumoral rHMGN1 1, 10 or 50 μg on days 8, 12, 15 and 19): slowed down tumor growth, but did not completely eradicate tumors; also recorded: inhibited tumor growth in a dose dependent manner
percent survival (small CT26 tumors, intratumoral rHMGN1): improvement in percent survival
